Experimental data taken from patent US20040259795A1.

How the values were obtained:
[1] = target: soluble recombinant human CD14 (rHu-LAIT) (human) (UniProt P08571); assay: cell-based or functional assay
[2] = target: soluble recombinant bovine CD14 (rBo-LAIT) (bovine) (UniProt Q95122); assay: cell-based or functional assay
Sequence of UniProt Q95122 (Q95122 21-373 S209T limits assumed): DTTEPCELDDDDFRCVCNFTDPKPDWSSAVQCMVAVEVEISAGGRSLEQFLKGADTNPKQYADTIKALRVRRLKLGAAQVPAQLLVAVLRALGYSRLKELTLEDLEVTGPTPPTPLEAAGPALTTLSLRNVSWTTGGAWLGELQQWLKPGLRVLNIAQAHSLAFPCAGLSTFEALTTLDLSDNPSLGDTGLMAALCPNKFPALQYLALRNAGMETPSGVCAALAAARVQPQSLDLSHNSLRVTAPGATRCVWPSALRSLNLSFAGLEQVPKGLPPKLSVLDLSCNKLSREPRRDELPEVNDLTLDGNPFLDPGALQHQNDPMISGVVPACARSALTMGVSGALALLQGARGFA

Sequence of UniProt P08571 (P08571 20-345 C187Y limits assumed): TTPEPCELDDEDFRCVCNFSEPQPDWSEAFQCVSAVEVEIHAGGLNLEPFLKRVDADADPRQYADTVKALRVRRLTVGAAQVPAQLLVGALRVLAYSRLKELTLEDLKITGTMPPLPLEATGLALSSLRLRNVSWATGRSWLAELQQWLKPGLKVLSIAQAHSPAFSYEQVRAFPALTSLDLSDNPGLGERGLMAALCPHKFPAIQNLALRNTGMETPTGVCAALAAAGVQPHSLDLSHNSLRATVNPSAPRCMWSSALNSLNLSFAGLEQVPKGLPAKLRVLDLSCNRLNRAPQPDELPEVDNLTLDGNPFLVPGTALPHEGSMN

inhibition of B cell activation (3H-TdR uptake, percent of response without mAb) [1]: < 15%
inhibition of B cell activation (3H-TdR uptake, percent of response without mAb) [2]: < 15%
inhibition of induction of mIg+ 70Z/3 cells (flow cytometry) [2]: < 15%
Substance: IgG2b isotype non-specific mAb OX40 (antibody)
